Starred links: 1 amine or outer side, 2 acyl side, 3 side chain; linkers in the order of their positions; H or OH if unused. Positions of bridges follow the written chain, without caps; N, C: chain ends. Non-standard residues stand in square brackets, D forms with d. Primed or numbered codes have the meaning given here. B5(17) = 2,2-bis(4-pentenyl)glycine = 2-amino-2-(pent-4-en-1-yl)hept-6-enoic acid, stitching residue, C=CCCCC(CCCC=C)(N[*:1])C(=O)[*:2]; B5(18) = 2,2-bis(4-pentenyl)glycine (2-amino-2-(pent-4-en-1-yl)hept-6-enoic acid), stitching residue, C=CCCCC(CCCC=C)(N[*:1])C(=O)[*:2]; B5(24) = 2-amino-2-(pent-4-en-1-yl)hept-6-enoic acid, 2,2-bis(4-pentenyl)glycine (stitching residue), C=CCCCC(CCCC=C)(N[*:1])C(=O)[*:2]; B5(4) = 2,2-bis(4-pentenyl)glycine = 2-amino-2-(pent-4-en-1-yl)hept-6-enoic acid (stitching residue), C=CCCCC(CCCC=C)(N[*:1])C(=O)[*:2]; PyrS = (S)-1-((allyloxy)carbonyl)-3-aminopyrrolidine-3-carboxylic acid, C=CCOC(=O)N1CC[C@@](N[*:1])(C(=O)[*:2])C1; B5(3) = 2,2-bis(4-pentenyl)glycine (stitching residue), C=CCCCC(CCCC=C)(N[*:1])C(=O)[*:2]; B5 = 2-amino-2-(pent-4-en-1-yl)hept-6-enoic acid, C=CCCCC(CCCC=C)(N[*:1])C(=O)[*:2]; Phe(F5) = N[C@@H](Cc1c(F)c(F)c(F)c(F)c1F)C(=O)O; Phe(3,4-F2) = N[C@@H](Cc1ccc(F)c(F)c1)C(=O)O; Phe(3-F) = N[C@@H](Cc1cccc(F)c1)C(=O)O; Phe(4-F) = N[C@@H](Cc1ccc(F)cc1)C(=O)O; 2Nal = N[C@@H](Cc1ccc2ccccc2c1)C(=O)O; Bta = N[C@@H](Cc1csc2ccccc12)C(=O)O; hTyr = N[C@@H](CCc1ccc(O)cc1)C(=O)O; αAllylPro = C=CC[C@@]1(C(=O)O)CCCN1; hPhe = N[C@@H](CCc1ccccc1)C(=O)O; 4Pal = N[C@@H](Cc1ccncc1)C(=O)O; R8 = C=CCCCCCC[C@@](C)(N)C(=O)O; S8 = C=CCCCCCC[C@](C)(N)C(=O)O; Nle = CCCC[C@H](N)C(=O)O
Assays:
[1] = target: T1, full-length beta-Catenin (Uniprot ID P35222) (Homo sapiens (Human), UniProt P35222 1-781); assay: AlphaScreen (nickel chelate) competition; full-length beta-catenin + biotin-TCF4(10-53) probe as competitor; peptide titrated
T1 construct: Used full-length in the FP and AlphaScreen assays; also called B-Catenin; bCat
T1 sequence: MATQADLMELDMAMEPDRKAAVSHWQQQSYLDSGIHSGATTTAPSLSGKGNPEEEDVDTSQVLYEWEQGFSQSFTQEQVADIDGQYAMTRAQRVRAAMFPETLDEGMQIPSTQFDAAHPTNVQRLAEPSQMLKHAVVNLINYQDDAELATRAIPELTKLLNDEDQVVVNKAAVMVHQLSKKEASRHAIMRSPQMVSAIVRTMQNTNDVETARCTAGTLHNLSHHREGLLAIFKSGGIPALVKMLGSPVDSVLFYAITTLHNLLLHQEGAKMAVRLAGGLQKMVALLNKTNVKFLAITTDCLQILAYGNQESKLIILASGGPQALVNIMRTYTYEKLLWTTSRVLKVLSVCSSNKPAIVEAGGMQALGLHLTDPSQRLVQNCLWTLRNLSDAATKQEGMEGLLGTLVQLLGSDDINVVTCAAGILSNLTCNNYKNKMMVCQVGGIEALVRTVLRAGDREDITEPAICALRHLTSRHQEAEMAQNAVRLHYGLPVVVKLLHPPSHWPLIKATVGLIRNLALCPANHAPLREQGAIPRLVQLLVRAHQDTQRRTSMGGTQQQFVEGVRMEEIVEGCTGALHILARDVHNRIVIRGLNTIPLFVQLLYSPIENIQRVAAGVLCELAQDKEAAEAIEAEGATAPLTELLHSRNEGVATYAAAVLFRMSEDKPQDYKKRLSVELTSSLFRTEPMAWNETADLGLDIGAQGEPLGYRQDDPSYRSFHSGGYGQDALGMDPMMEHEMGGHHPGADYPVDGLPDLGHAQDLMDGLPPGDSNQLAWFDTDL
Protocol: (§1) Equal volume of the titrated peptide was added to the plate and incubated for 15 minutes at 20° C. Then 4 uL of donor and 4 uL acceptor beads at 10 ug/mL were added to the plate, for a 16 uL reaction pool and protected from light for 60 minutes at 20° C. prior to read. Reads were performed on a CLARIOstar plate reader (BMG Labtech) in duplicate, and data were fitted to a 1:1 binding model with hill slope using an in-house script. All provided concentrations are final concentrations.

[2] = target: T2, full-length beta-Catenin (Uniprot ID P35222) (Homo sapiens (Human), UniProt P35222 1-781); assay: AlphaScreen competition; full-length beta-catenin with biotin-labelled TCF4 10-53 peptide as competitor
T2 construct: The assay protocols call it full-length; also called B-Catenin; bCat
T2 sequence: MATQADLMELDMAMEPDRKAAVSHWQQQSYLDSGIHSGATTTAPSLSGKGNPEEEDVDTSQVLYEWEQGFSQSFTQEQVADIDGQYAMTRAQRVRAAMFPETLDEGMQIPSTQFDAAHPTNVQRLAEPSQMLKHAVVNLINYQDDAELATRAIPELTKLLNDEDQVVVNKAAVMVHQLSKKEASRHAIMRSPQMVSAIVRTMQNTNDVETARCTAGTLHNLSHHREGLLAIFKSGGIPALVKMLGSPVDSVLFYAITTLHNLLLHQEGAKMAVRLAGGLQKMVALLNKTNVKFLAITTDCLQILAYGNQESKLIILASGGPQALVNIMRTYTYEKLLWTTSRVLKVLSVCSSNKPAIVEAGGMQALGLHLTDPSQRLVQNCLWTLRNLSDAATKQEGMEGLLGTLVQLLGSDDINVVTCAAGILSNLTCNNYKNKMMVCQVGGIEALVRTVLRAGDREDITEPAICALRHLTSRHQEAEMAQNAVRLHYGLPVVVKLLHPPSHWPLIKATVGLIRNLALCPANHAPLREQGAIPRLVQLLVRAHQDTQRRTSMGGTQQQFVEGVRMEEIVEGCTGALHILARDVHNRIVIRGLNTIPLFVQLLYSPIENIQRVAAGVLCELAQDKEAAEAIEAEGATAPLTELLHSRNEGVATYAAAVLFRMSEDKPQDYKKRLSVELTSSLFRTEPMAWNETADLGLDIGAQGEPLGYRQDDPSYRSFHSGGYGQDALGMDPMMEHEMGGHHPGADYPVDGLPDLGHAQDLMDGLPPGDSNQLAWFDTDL
Protocol: as §1

[3] = target: T3, full-length beta-Catenin (Uniprot ID P35222) (Homo sapiens (Human), UniProt P35222 1-781); assay: fluorescence polarization competition; full-length beta-catenin, competitor 5FAM-TCF4(10-53) probe
T3 construct: The assay text says 'full-length beta-Catenin (Uniprot ID P35222)'; also called bCat; B-Catenin
T3 sequence: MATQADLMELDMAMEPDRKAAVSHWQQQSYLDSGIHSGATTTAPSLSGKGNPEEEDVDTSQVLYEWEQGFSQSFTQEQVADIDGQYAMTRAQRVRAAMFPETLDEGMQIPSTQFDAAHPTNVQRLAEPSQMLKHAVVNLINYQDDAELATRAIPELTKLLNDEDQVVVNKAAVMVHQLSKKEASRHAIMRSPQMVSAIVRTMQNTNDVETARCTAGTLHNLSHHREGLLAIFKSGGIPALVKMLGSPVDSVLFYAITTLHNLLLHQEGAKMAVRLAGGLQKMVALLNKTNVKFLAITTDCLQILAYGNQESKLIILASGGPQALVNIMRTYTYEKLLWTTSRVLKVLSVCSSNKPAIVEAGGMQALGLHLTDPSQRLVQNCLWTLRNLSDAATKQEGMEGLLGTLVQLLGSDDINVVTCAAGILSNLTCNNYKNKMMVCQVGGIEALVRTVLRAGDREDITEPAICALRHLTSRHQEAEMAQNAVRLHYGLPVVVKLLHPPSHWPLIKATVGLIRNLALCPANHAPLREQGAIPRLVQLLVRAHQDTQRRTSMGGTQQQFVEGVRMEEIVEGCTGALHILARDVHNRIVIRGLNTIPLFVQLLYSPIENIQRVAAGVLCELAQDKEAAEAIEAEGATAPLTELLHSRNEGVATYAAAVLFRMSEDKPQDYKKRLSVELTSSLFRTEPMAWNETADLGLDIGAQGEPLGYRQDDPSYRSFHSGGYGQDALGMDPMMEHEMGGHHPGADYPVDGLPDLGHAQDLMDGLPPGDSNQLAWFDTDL
Protocol: The plate was incubated protected from light for 60 minutes at 20° C. prior to read. Reads were performed on a CLARIOstar plate reader (BMG Labtech) in duplicate, and data were fitted to a 1:1 binding model with hill slope using an in-house script. All provided concentrations are final concentrations.

Binder	EC50 [2] [µM]	further results
Ac-[αAllylPro]DA[B5(18)]DEAA[Phe(3,4-F2)]A[S8]F[2Nal]A-NH2 (staple 1-4, 4-11, Stapled peptide composition) [I-185]	–	EC50 [1]: 2.66 µM
Ac-[αAllylPro]DA[B5(17)]D[4Pal]AAFV[S8]FWQ-NH2 (staple 1-4, 4-11, Stapled (stitched) peptide; also called Ac-PL3-Asp-Ala-B5-Asp-4PyrA-Ala-Ala-Phe-Val-S8-Phe-Trp-Gln-NH2) [I-272]	1.01	–
Ac-[αAllylPro]DA[B5(4)]D[Phe(3-F)]AAFV[S8]FWQ-NH2 (staple 1-4, 4-11, Stapled (stitched) peptide; also called Ac-PL3-Asp-Ala-B5-Asp-3FF-Ala-Ala-Phe-Val-S8-Phe-Trp-Gln-NH2) [I-257]	3.81	–
Ac-[αAllylPro]DA[B5(4)]DDAAFV[S8]DWQ-NH2 (staple 1-4, 4-11, Stapled (stitched) peptide; also called Ac-PL3-Asp-Ala-B5-Asp-Asp-Ala-Ala-Phe-Val-S8-Asp-Trp-Gln-NH2) [I-283]	9.54	–
XDAXEDAAFVXFWQ (not fully specified; N-terminal Ac; PL3 at 1; B5 at 4; S8 at 11; C-terminal NH2; staples PL3(1)-B5(4) and B5(4)-S8(11) by olefin metathesis, Stapled (stitched) peptide; also called Ac-PL3-Asp-Ala-B5-Glu-Asp-Ala-Ala-Phe-Val-S8-Phe-Trp-Gln-NH2) [I-281]	6.26	–
Ac-[αAllylPro]DA[B5]D[Phe(3,4-F2)]AAFV[S8]FWQ-NH2 (staple 1-4, 4-11, Stapled (stitched) peptide; also called Ac-PL3-Asp-Ala-B5-Asp-34FF-Ala-Ala-Phe-Val-S8-Phe-Trp-Gln-NH2) [I-259]	4.18	–
XDAXEDAAFVXFWQ (not fully specified; N-terminal Ac; PL3 at 1; B5 at 4; S8 at 11; C-terminal NH2; staples PL3(1)-B5(4) and B5(4)-S8(11) by olefin metathesis, Stapled (stitched) peptide; also called Ac-PL3-Asp-Ala-B5-Glu-Asp-Ala-Ala-Phe-Val-S8-Phe-Trp-Gln-NH2) [I-282]	3.53	–
Ac-[αAllylPro]DA[B5(4)]DYAAFV[S8]FWQ-NH2 (staple 1-4, 4-11, Stapled (stitched) peptide; also called Ac-PL3-Asp-Ala-B5-Asp-Tyr-Ala-Ala-Phe-Val-S8-Phe-Trp-Gln-NH2) [I-274]	2.35	–
XEAXDDAAFVXFWQ (not fully specified; N-terminal Ac; PL3 at 1; B5 at 4; S8 at 11; C-terminal NH2; staples PL3(1)-B5(4) and B5(4)-S8(11) by olefin metathesis, Stapled (stitched) peptide; also called Ac-PL3-Glu-Ala-B5-Asp-Asp-Ala-Ala-Phe-Val-S8-Phe-Trp-Gln-NH2) [I-280]	3.05	–
XEAXDDAAFVXFWQ (not fully specified; N-terminal Ac; PL3 at 1; B5 at 4; S8 at 11; C-terminal NH2; staples PL3(1)-B5(4) and B5(4)-S8(11) by olefin metathesis, Stapled (stitched) peptide; also called Ac-PL3-Glu-Ala-B5-Asp-Asp-Ala-Ala-Phe-Val-S8-Phe-Trp-Gln-NH2) [I-279]	4.96	–
Ac-[αAllylPro]DA[B5]D[Phe(4-F)]AAFV[S8]FWQ-NH2 (staple 1-4, 4-11, Stapled (stitched) peptide; also called Ac-PL3-Asp-Ala-B5-Asp-4FF-Ala-Ala-Phe-Val-S8-Phe-Trp-Gln-NH2) [I-258]	2.93	–
Ac-[αAllylPro]DA[B5(4)]DDAAFV[S8]NWQ-NH2 (staple 1-4, 4-11, Stapled (stitched) peptide; also called Ac-PL3-Asp-Ala-B5-Asp-Asp-Ala-Ala-Phe-Val-S8-Asn-Trp-Gln-NH2) [I-284]	4.35	–
Ac-[αAllylPro]DA[B5(3)][Nle]EAAFV[S8]FWQ-NH2 (staple 1-4, 4-11, Stapled peptide composition) [I-205]	–	EC50 [1]: ≥ 10 µM
Ac-FDA[R8]DDAAFQ[PyrS]FWQ-NH2 (staple 4-11; not fully specified; printed as Ac-Phe-Asp-Ala-R8-Asp-Asp-Ala-Ala-Phe-Gln-PyrS-Phe-Trp-Gln-NH2, Stapled peptide composition) [I-579]	–	EC50 [3]: 5 µM
XDAXDDAAFQXFXQ (not fully specified; Ac-PL3-Asp-Ala-B5-Asp-Asp-Ala-Ala-Phe-Gln-S8-Phe-BztA-Gln-NH2; stapled PL3(1)-B5(4) and B5(4)-S8(11) by olefin metathesis, Stapled peptide composition; the description may be misprinted) [I-578]	–	EC50 [3]: 5 µM
Ac-[αAllylPro]DI[B5(24)]DEAA[Bta]Q[S8]FFQ-NH2 (staple 1-4, 4-11; not fully specified, Stapled peptide composition) [I-585]	–	EC50 [3]: 5 µM
Ac-[αAllylPro]DA[B5(4)]DEAAFV[S8][Phe(F5)]WQ-NH2 (staple 1-4, 4-11, Stapled peptide composition) [I-183]	–	EC50 [1]: 3.77 µM
Ac-[αAllylPro]DA[B5(4)][hPhe]EAAFV[S8]FWQ-NH2 (staple 1-4, 4-11, Stapled peptide composition; this is the later-eluting isomer composition) [I-197]	–	EC50 [1]: 6.15 µM
Ac-[αAllylPro]DA[B5(17)]DDAAFV[S8][hTyr]WQ-NH2 (staple 1-4, 4-11, Stapled (stitched) peptide; also called Ac-PL3-Asp-Ala-B5-Asp-Asp-Ala-Ala-Phe-Val-S8-hTyr-Trp-Gln-NH2) [I-269]	5.31	–

Reference: patent publication US20240116985A1 (published 2024)
